In patent US20180155451A1 (published 2018):

Key:
[1] = molecular target: T1, FcγRIIa H (FcγRIIa type H, His at position 131), extracellular domain with C-terminal His tag (human, UniProt P12318 34-217); experiment: SPR Biacore; He/Con_2aH divided by He/Con_2b (reference: FcgRIIb)
T1 construct: extracellular domain; Expressed in FreeStyle293 cells; analyte in the Biacore assay; also called FcgRIIa H; 2aH; not shown: His tag at the C terminus
T1 sequence (looked up): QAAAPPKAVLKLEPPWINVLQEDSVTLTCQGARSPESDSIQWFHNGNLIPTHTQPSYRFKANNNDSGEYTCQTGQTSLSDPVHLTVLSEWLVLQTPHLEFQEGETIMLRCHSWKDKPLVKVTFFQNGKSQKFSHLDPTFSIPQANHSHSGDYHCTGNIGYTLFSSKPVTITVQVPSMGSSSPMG

[2] = molecular target: T2, FcγRIIb, extracellular domain with C-terminal His tag (human, UniProt P31994 43-217); experiment: SPR Biacore, captured antibody, FcgR analyte; GpH7-A5/GpH7-B3/GpL16-k0 = 100
T2 construct: extracellular domain; Expressed in FreeStyle293 cells; analyte in the Biacore assay; also called FcgRIIb; 2b; not shown: His tag at the C terminus
T2 sequence (looked up): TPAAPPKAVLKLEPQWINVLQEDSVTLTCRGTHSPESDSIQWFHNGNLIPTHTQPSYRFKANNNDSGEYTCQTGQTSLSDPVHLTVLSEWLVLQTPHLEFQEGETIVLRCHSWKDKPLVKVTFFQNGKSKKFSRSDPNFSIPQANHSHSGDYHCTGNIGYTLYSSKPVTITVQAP

[3] = molecular target: T1, FcγRIIa H (FcγRIIa type H, His at …); experiment: as above

B1: GpH7-A5/GpH7-B3 variant P329_04F/GpL16-k0 (antibody, human IgG1, kappa)
heavy 1: not shown
heavy 2: not shown
light: DIVMTQSPLSLPVTPGEPASISCQASESLVHSNRNTYLHWYLQKPGQSPQLLIYKVSNRFSGVPDRFSGSGSGTDFTLKISRVEAEDVGVYYCSQNTHVPPTFGQGTKVEIERTVAAPSVFIFPPSDEQLKSGTASVVCLLNNFYPREAKVQWKVDNALQSGNSQESVTEQDSKDSTYSLSSTLTLSKADYEKHKVYACEVTHQGLSSPVTKSFNRGEC
notes: He Ab; IgG1; mutation in one H chain only; also called He Ab
He_2aH/2b (IIaH/IIb) [1]: 1.38
He/Con_2b [2]: 32.2 % of HeCon Ab
He/Con_2aH [3]: 44.5 % of HeCon Ab

B2: GpH7-A5/GpH7-B3 variant P329_12R/GpL16-k0 (antibody, human IgG1, kappa)
heavy 1: not shown
heavy 2: not shown
light: DIVMTQSPLSLPVTPGEPASISCQASESLVHSNRNTYLHWYLQKPGQSPQLLIYKVSNRFSGVPDRFSGSGSGTDFTLKISRVEAEDVGVYYCSQNTHVPPTFGQGTKVEIERTVAAPSVFIFPPSDEQLKSGTASVVCLLNNFYPREAKVQWKVDNALQSGNSQESVTEQDSKDSTYSLSSTLTLSKADYEKHKVYACEVTHQGLSSPVTKSFNRGEC
notes: as for B1
He_2aH/2b (IIaH/IIb) [1]: 2.63
He/Con_2b [2]: 17.6 % of HeCon Ab
He/Con_2aH [3]: 46.4 % of HeCon Ab

B3: GpH7-A5/GpH7-B3 variant P329_18N/GpL16-k0 (antibody, human IgG1, kappa)
heavy 1: not shown
heavy 2: not shown
light: DIVMTQSPLSLPVTPGEPASISCQASESLVHSNRNTYLHWYLQKPGQSPQLLIYKVSNRFSGVPDRFSGSGSGTDFTLKISRVEAEDVGVYYCSQNTHVPPTFGQGTKVEIERTVAAPSVFIFPPSDEQLKSGTASVVCLLNNFYPREAKVQWKVDNALQSGNSQESVTEQDSKDSTYSLSSTLTLSKADYEKHKVYACEVTHQGLSSPVTKSFNRGEC
notes: as for B1
He_2aH/2b (IIaH/IIb) [1]: 1.64
He/Con_2b [2]: 40.4 % of HeCon Ab
He/Con_2aH [3]: 66.2 % of HeCon Ab

B4: GpH7-A5/GpH7-B3 variant S324_10E/GpL16-k0 (antibody, human IgG1, kappa)
heavy 1: not shown
heavy 2: not shown
light: DIVMTQSPLSLPVTPGEPASISCQASESLVHSNRNTYLHWYLQKPGQSPQLLIYKVSNRFSGVPDRFSGSGSGTDFTLKISRVEAEDVGVYYCSQNTHVPPTFGQGTKVEIERTVAAPSVFIFPPSDEQLKSGTASVVCLLNNFYPREAKVQWKVDNALQSGNSQESVTEQDSKDSTYSLSSTLTLSKADYEKHKVYACEVTHQGLSSPVTKSFNRGEC
notes: as for B1
He_2aH/2b (IIaH/IIb) [1]: 1.33
He/Con_2b [2]: 77.4 % of HeCon Ab
He/Con_2aH [3]: 103 % of HeCon Ab

B5: GpH7-A5/GpH7-B3 variant P329_08L/GpL16-k0 (antibody, human IgG1, kappa)
heavy 1: not shown
heavy 2: not shown
light: DIVMTQSPLSLPVTPGEPASISCQASESLVHSNRNTYLHWYLQKPGQSPQLLIYKVSNRFSGVPDRFSGSGSGTDFTLKISRVEAEDVGVYYCSQNTHVPPTFGQGTKVEIERTVAAPSVFIFPPSDEQLKSGTASVVCLLNNFYPREAKVQWKVDNALQSGNSQESVTEQDSKDSTYSLSSTLTLSKADYEKHKVYACEVTHQGLSSPVTKSFNRGEC
notes: as for B1
He_2aH/2b (IIaH/IIb) [1]: 1.56
He/Con_2b [2]: 29.1 % of HeCon Ab
He/Con_2aH [3]: 45.4 % of HeCon Ab

B6: GpH7-A5/GpH7-B3 variant S324_01G/GpL16-k0 (antibody, human IgG1, kappa)
heavy 1: not shown
heavy 2: not shown
light: DIVMTQSPLSLPVTPGEPASISCQASESLVHSNRNTYLHWYLQKPGQSPQLLIYKVSNRFSGVPDRFSGSGSGTDFTLKISRVEAEDVGVYYCSQNTHVPPTFGQGTKVEIERTVAAPSVFIFPPSDEQLKSGTASVVCLLNNFYPREAKVQWKVDNALQSGNSQESVTEQDSKDSTYSLSSTLTLSKADYEKHKVYACEVTHQGLSSPVTKSFNRGEC
notes: as for B1
He_2aH/2b (IIaH/IIb) [1]: 1.22
He/Con_2b [2]: 81.1 % of HeCon Ab
He/Con_2aH [3]: 98.8 % of HeCon Ab

B7: GpH7-A5/GpH7-B3 variant P329_13S/GpL16-k0 (antibody, human IgG1, kappa)
heavy 1: not shown
heavy 2: not shown
light: DIVMTQSPLSLPVTPGEPASISCQASESLVHSNRNTYLHWYLQKPGQSPQLLIYKVSNRFSGVPDRFSGSGSGTDFTLKISRVEAEDVGVYYCSQNTHVPPTFGQGTKVEIERTVAAPSVFIFPPSDEQLKSGTASVVCLLNNFYPREAKVQWKVDNALQSGNSQESVTEQDSKDSTYSLSSTLTLSKADYEKHKVYACEVTHQGLSSPVTKSFNRGEC
notes: as for B1
He_2aH/2b (IIaH/IIb) [1]: 1.64
He/Con_2b [2]: 41 % of HeCon Ab
He/Con_2aH [3]: 67.3 % of HeCon Ab

B8: GpH7-A5/GpH7-B3 variant S324_02A/GpL16-k0 (antibody, human IgG1, kappa)
heavy 1: not shown
heavy 2: not shown
light: DIVMTQSPLSLPVTPGEPASISCQASESLVHSNRNTYLHWYLQKPGQSPQLLIYKVSNRFSGVPDRFSGSGSGTDFTLKISRVEAEDVGVYYCSQNTHVPPTFGQGTKVEIERTVAAPSVFIFPPSDEQLKSGTASVVCLLNNFYPREAKVQWKVDNALQSGNSQESVTEQDSKDSTYSLSSTLTLSKADYEKHKVYACEVTHQGLSSPVTKSFNRGEC
notes: as for B1
He_2aH/2b (IIaH/IIb) [1]: 1.31
He/Con_2b [2]: 78.3 % of HeCon Ab
He/Con_2aH [3]: 102 % of HeCon Ab

B9: GpH7-A5/GpH7-B3 variant P329_06M/GpL16-k0 (antibody, human IgG1, kappa)
heavy 1: not shown
heavy 2: not shown
light: DIVMTQSPLSLPVTPGEPASISCQASESLVHSNRNTYLHWYLQKPGQSPQLLIYKVSNRFSGVPDRFSGSGSGTDFTLKISRVEAEDVGVYYCSQNTHVPPTFGQGTKVEIERTVAAPSVFIFPPSDEQLKSGTASVVCLLNNFYPREAKVQWKVDNALQSGNSQESVTEQDSKDSTYSLSSTLTLSKADYEKHKVYACEVTHQGLSSPVTKSFNRGEC
notes: as for B1
He_2aH/2b (IIaH/IIb) [1]: 1.5
He/Con_2b [2]: 29.1 % of HeCon Ab
He/Con_2aH [3]: 43.7 % of HeCon Ab

B10: GpH7-A5/GpH7-B3 variant P329_19Q/GpL16-k0 (antibody, human IgG1, kappa)
heavy 1: not shown
heavy 2: not shown
light: DIVMTQSPLSLPVTPGEPASISCQASESLVHSNRNTYLHWYLQKPGQSPQLLIYKVSNRFSGVPDRFSGSGSGTDFTLKISRVEAEDVGVYYCSQNTHVPPTFGQGTKVEIERTVAAPSVFIFPPSDEQLKSGTASVVCLLNNFYPREAKVQWKVDNALQSGNSQESVTEQDSKDSTYSLSSTLTLSKADYEKHKVYACEVTHQGLSSPVTKSFNRGEC
notes: as for B1
He_2aH/2b (IIaH/IIb) [1]: 1.26
He/Con_2b [2]: 30.7 % of HeCon Ab
He/Con_2aH [3]: 38.7 % of HeCon Ab

B11: GpH7-A5/GpH7-B3 variant P329_16H/GpL16-k0 (antibody, human IgG1, kappa)
heavy 1: not shown
heavy 2: not shown
light: DIVMTQSPLSLPVTPGEPASISCQASESLVHSNRNTYLHWYLQKPGQSPQLLIYKVSNRFSGVPDRFSGSGSGTDFTLKISRVEAEDVGVYYCSQNTHVPPTFGQGTKVEIERTVAAPSVFIFPPSDEQLKSGTASVVCLLNNFYPREAKVQWKVDNALQSGNSQESVTEQDSKDSTYSLSSTLTLSKADYEKHKVYACEVTHQGLSSPVTKSFNRGEC
notes: as for B1
He_2aH/2b (IIaH/IIb) [1]: 1.69
He/Con_2b [2]: 39.1 % of HeCon Ab
He/Con_2aH [3]: 66.1 % of HeCon Ab

B12: GpH7-A5/GpH7-B3 variant S324_09D/GpL16-k0 (antibody, human IgG1, kappa)
heavy 1: not shown
heavy 2: not shown
light: DIVMTQSPLSLPVTPGEPASISCQASESLVHSNRNTYLHWYLQKPGQSPQLLIYKVSNRFSGVPDRFSGSGSGTDFTLKISRVEAEDVGVYYCSQNTHVPPTFGQGTKVEIERTVAAPSVFIFPPSDEQLKSGTASVVCLLNNFYPREAKVQWKVDNALQSGNSQESVTEQDSKDSTYSLSSTLTLSKADYEKHKVYACEVTHQGLSSPVTKSFNRGEC
notes: as for B1
He_2aH/2b (IIaH/IIb) [1]: 1.23
He/Con_2b [2]: 85.8 % of HeCon Ab
He/Con_2aH [3]: 106 % of HeCon Ab

B13: GpH7-A5/GpH7-B3 variant P329_11K/GpL16-k0 (antibody, human IgG1, kappa)
heavy 1: not shown
heavy 2: not shown
light: DIVMTQSPLSLPVTPGEPASISCQASESLVHSNRNTYLHWYLQKPGQSPQLLIYKVSNRFSGVPDRFSGSGSGTDFTLKISRVEAEDVGVYYCSQNTHVPPTFGQGTKVEIERTVAAPSVFIFPPSDEQLKSGTASVVCLLNNFYPREAKVQWKVDNALQSGNSQESVTEQDSKDSTYSLSSTLTLSKADYEKHKVYACEVTHQGLSSPVTKSFNRGEC
notes: as for B1
He_2aH/2b (IIaH/IIb) [1]: 2.74
He/Con_2b [2]: 16.9 % of HeCon Ab
He/Con_2aH [3]: 46.2 % of HeCon Ab

B14: GpH7-A5/GpH7-B3 variant P329_14T/GpL16-k0 (antibody, human IgG1, kappa)
heavy 1: not shown
heavy 2: not shown
light: DIVMTQSPLSLPVTPGEPASISCQASESLVHSNRNTYLHWYLQKPGQSPQLLIYKVSNRFSGVPDRFSGSGSGTDFTLKISRVEAEDVGVYYCSQNTHVPPTFGQGTKVEIERTVAAPSVFIFPPSDEQLKSGTASVVCLLNNFYPREAKVQWKVDNALQSGNSQESVTEQDSKDSTYSLSSTLTLSKADYEKHKVYACEVTHQGLSSPVTKSFNRGEC
notes: as for B1
He_2aH/2b (IIaH/IIb) [1]: 1.65
He/Con_2b [2]: 37.9 % of HeCon Ab
He/Con_2aH [3]: 62.4 % of HeCon Ab

B15: GpH7-A5/GpH7-B3 variant P329_07I/GpL16-k0 (antibody, human IgG1, kappa)
heavy 1: not shown
heavy 2: not shown
light: DIVMTQSPLSLPVTPGEPASISCQASESLVHSNRNTYLHWYLQKPGQSPQLLIYKVSNRFSGVPDRFSGSGSGTDFTLKISRVEAEDVGVYYCSQNTHVPPTFGQGTKVEIERTVAAPSVFIFPPSDEQLKSGTASVVCLLNNFYPREAKVQWKVDNALQSGNSQESVTEQDSKDSTYSLSSTLTLSKADYEKHKVYACEVTHQGLSSPVTKSFNRGEC
notes: as for B1
He_2aH/2b (IIaH/IIb) [1]: 1.56
He/Con_2b [2]: 34.6 % of HeCon Ab
He/Con_2aH [3]: 53.8 % of HeCon Ab

B16: GpH7-A5/GpH7-B3 variant P329_15Y/GpL16-k0 (antibody, human IgG1, kappa)
heavy 1: not shown
heavy 2: not shown
light: DIVMTQSPLSLPVTPGEPASISCQASESLVHSNRNTYLHWYLQKPGQSPQLLIYKVSNRFSGVPDRFSGSGSGTDFTLKISRVEAEDVGVYYCSQNTHVPPTFGQGTKVEIERTVAAPSVFIFPPSDEQLKSGTASVVCLLNNFYPREAKVQWKVDNALQSGNSQESVTEQDSKDSTYSLSSTLTLSKADYEKHKVYACEVTHQGLSSPVTKSFNRGEC
notes: as for B1
He_2aH/2b (IIaH/IIb) [1]: 1.5
He/Con_2b [2]: 45.7 % of HeCon Ab
He/Con_2aH [3]: 68.7 % of HeCon Ab
